For eight molecules, Kd results are on record in article PMC9947658, “Escherichia coli CspA stimulates translation in the cold of its own mRNA by promoting ribosome progression”.

For series [1], the target named is T1, CspA (Escherichia coli, UniProt P0A9X9 1-70). The experiment in a line: tryptophan fluorescence quenching; 20°C; Trp fluorescence: 1 uM CspA, Buffer H, 20°C; EMSA: Buffer O, 15 or 37°C, 10% native PAGE at 4°C; Fe-EDTA footprinting: Buffer N, 15°C; UV cross-linking at 15°C; buffer compositions not given in the material. Conditions: protein: recombinant; tags: His-tag (pETM11) removed with TEV; single strand. On the technique in general: A gel shift assay detects complexes by their altered migration in electrophoresis.

Series [2] has as its target T1, CspA. In words: tryptophan fluorescence quenching; 20°C; text calls the G6A variant oligo 6, table and Fig S10 oligo 5; Trp fluorescence: 1 uM CspA, Buffer H, 20°C; EMSA: Buffer O, 15 or 37°C, 10% native PAGE at 4°C; Fe-EDTA footprinting: Buffer N, 15°C; UV cross-linking at 15°C; buffer compositions not given in the material. To be noted: protein: recombinant; tags: His-tag (pETM11) removed with TEV; single strand.

The target of series [3] is Escherichia coli 30S ribosomal subunits (E. coli). The experiment in a line: ITC; control experiment: IF1 and 30S subunits, at low temperature, under comparable conditions; ITC buffer. (ITC needs no label: the signal is the heat of the interaction.)

T1 sequence (P0A9X9 whole entry): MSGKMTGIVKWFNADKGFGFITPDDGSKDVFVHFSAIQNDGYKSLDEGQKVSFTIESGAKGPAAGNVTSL

AACUAGUA (ssRNA) [Oligo 4]: the Kd in series [1] was 1030 ± 60 nM.

For AACAGGUA (ssRNA) [Oligo 3], in series [1], the Kd was determined as 1240 ± 50 nM.

Turning to AAAAAAAAA (ssRNA) [Oligo 7 (poly-A)], the Kd in series [1] turned out to be 5130 ± 1150 nM.

AACUGAUA (ssRNA) [Oligo 5]: the Kd in series [2] was found to be 4860 ± 240 nM.

As for AACUGGAA (ssRNA) [Oligo 6], the Kd in series [1] stood at 2080 ± 140 nM.

For the molecule AAAUGGUA (ssRNA) [Oligo 2], in series [1], the Kd was 2300 ± 130 nM.

B1: initiation factor IF1 (natural protein)
chain: MAKEDNIEMQGTVLETLPNTMFRVELENGHVVTAHISGKMRKNYIRILTGDKVTVELTPYDLSKGRIVFRSR
Take B1: the Kd in series [3] came out at 806 nM.

Take AACUGGUA (ssRNA) [Oligo 1]: the Kd in series [1] worked out at 1240 ± 80 nM.

Broadly, the Kd is the equilibrium constant for the complex coming apart.
